Test [1] deals with dipeptidyl peptidase IV (DPPIV). The test can be described thus: inhibition of DPPIV activity, AMC fluorogenic substrate.
Test [2] has as its target T1, antiplasmin-cleaving enzyme (APCE) (human, UniProt Q12884 24-760, Natural plasma glycoprotein; glycans are not carried by the letters. The active enzyme is known as a homodimer; one chain is given.).
T1 construct: The range 24-760 is derived from the statement that APCE lacks the first 23 residues of FAP; also called α2-antiplasmin cleaving enzyme; APCE/FAP
T1 sequence: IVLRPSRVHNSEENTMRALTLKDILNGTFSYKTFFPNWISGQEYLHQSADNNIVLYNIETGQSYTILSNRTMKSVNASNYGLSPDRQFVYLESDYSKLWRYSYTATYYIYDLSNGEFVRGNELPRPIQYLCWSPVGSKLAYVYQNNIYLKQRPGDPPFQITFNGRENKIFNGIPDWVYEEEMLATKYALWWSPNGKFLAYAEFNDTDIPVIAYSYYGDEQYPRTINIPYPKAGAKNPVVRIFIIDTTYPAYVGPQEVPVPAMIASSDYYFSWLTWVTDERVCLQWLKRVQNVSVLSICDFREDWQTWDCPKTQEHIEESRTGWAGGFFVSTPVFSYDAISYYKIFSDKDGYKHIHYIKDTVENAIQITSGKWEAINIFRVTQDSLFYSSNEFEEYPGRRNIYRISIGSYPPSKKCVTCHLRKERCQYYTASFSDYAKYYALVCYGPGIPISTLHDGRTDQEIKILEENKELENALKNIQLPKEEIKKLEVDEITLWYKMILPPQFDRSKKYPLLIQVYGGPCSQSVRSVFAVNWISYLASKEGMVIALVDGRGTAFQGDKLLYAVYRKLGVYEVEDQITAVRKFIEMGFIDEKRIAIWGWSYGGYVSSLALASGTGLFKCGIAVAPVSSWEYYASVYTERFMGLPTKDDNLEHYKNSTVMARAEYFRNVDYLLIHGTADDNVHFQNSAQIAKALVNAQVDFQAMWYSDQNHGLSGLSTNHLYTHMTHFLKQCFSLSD
In words: inhibition of APCE activity, AMC fluorogenic substrate.

Test [3] deals with dipeptidyl peptidase IV (DPPIV). In words: ratio of Ki for DPPIV to Ki for APCE/FAP.
For test [4], the target named is T1, antiplasmin-cleaving enzyme (APCE). In words: inhibition of APCE activity, AMC fluorogenic substrate, competitive fit. As for the experimental part: Enzyme assays. APCE or DDPIV was incubated in 25 mM sodium phosphate buffer, pH 7.5, containing 1.0 mM EDTA and 4% methanol in a total volume of 200 μl for 20 min at 22° C., using fluorescent substrates […]-AMC (SEQ ID NO.:4) (12.5-100 μM); […]-AMC (SEQ ID NO.:5) (12.5-100 μM); Z-Gly-Pro-AMC (25-200 μM); or GP-AMC (62.5-1000 μM). […] Fluorescence was monitored with time at excitation and emission wavelengths of 360 and 460 nm using a black-sided, 96-well plate in a BIO-TEK FL600 fluorescence plate reader. For standard curves, dilutions of AMC (7-amino-4-methylcoumarin) were prepared in the same assay buffer and corresponding fluorescence was measured. The substrates in five different concentrations were mixed with four different concentrations of inhibitors around the expected Ki values; the enzyme was added and enzymatically released AMC fluorescence was recorded. Competitive inhibition was established by Lineweaver-Burk plot. Therefore, enzyme kinetic parameters were computed by fitting data to the following equation, employing the program PRISM, GraphPad: […]

Where no end group is shown, it is not given here. [ ]: non-standard residue; d: D form. Pip = O=C(O)[C@@H]1CCCCN1; AEEA = NCCOCCOCC(=O)O

dipeptidyl peptidase IV (DPPIV), sequence (P27487 29-766): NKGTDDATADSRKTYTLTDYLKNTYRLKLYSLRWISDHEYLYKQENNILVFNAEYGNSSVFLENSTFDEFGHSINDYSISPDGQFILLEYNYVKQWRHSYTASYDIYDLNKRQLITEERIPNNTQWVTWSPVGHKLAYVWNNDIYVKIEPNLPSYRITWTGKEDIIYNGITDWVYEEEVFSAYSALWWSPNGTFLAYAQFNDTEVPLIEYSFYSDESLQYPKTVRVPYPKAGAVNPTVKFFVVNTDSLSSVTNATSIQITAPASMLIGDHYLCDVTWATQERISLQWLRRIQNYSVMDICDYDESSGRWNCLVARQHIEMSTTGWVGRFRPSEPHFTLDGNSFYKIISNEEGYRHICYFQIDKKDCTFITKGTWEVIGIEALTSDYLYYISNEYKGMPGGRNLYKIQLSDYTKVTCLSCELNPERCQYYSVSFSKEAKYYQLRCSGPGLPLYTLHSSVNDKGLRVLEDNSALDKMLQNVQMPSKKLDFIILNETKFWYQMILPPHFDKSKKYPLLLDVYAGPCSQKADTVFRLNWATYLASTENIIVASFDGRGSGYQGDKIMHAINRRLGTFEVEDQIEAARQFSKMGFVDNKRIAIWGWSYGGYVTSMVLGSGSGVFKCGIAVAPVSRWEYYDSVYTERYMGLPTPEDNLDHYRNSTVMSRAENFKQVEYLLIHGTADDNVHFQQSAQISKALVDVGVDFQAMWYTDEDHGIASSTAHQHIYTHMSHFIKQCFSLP

The Ki is the dissociation constant of the complex between target and ligand, obtained from inhibition or displacement. Low readings indicate tighter binding, high ones weaker binding. As to “Ac-Arg-(8-amino-3,6-dioxaoctanoyl)-D-Ala-L-boroPro (peptide)”, the Ki is 6130 nM in test [1] and 5.7 nM in test [2]. Further, the Selectivity, Ki (DPPIV)/Ki (APCE/FAP) in test [3] came to 1080. On the same counts, the results for Ac-Arg-Gly-Gly-DL-boroPro (peptide) are 341 nM, 22.9 nM and 14.9. Take Ac-Arg-Gly-Gly-L-boroPro (peptide): the Ki in test [1] amounted to 322 nM; in test [2], 17.2 nM. For the same molecule, the Selectivity, Ki (DPPIV)/Ki (APCE/FAP) in test [3] worked out at 18.7. As to Ac-Arg-peg-D-Ala-D-boroPro (peptide), the inhibition constant Ki was found to be 20500 nM in test [1] and 189 nM in test [2]. For the same molecule, the Selectivity, Ki (DPPIV)/Ki (APCE/FAP) in test [3] is 108. The molecule “Ac-Arg-peg-D-Ala-DL(25:75%)-boroPro (peptide)” displayed a Ki in test [2] of 7.7 nM. For “Ac-Arg-peg-D-Ala-DL(50:50%)-boroPro (peptide)”, the results for the Ki in test [1] and in test [2] were 11200 nM and 9.5 nM, respectively. Further, in test [3], the Selectivity, Ki (DPPIV)/Ki (APCE/FAP) was 1180. With “Ac-Arg-peg-D-Ala-DL(75:25%)-boroPro (peptide)”, the Ki in test [2] worked out at 18.3 nM. This counts as double-digit nanomolar.

Ac-Arg-peg-D-Asp-L-boroPro (peptide): the values for the inhibitory constant (Ki) in test [1] and in test [2] were 7130 nM and 1380 nM, respectively. In addition, the Selectivity, Ki (DPPIV)/Ki (APCE/FAP) in test [3] was found to be 5.2. For the molecule Ac-Arg-peg-Gly-DL-boroPro (peptide), the Ki in test [1] was determined as 1150 nM; in test [2], 3.1 nM. The Selectivity, Ki (DPPIV)/Ki (APCE/FAP) in test [3] came out at 371. Ac-Arg-peg-Gly-L-boroPro (peptide): the values for the Ki in test [1] and in test [2] were 440 nM and 1.8 nM, respectively. Moreover, the Selectivity, Ki (DPPIV)/Ki (APCE/FAP) in test [3] is 244. For the molecule Ac-Arg-peg-Ser-Gly-L-boroPro (peptide), the Ki in test [1] worked out at 861 nM; in test [2] it was 2.7 nM. Besides, the Selectivity, Ki (DPPIV)/Ki (APCE/FAP) in test [3] turned out to be 319. Regarding Ac-Gly-L-boroPro (peptide), the results for the Ki in test [1] and in test [2] were 314 nM and 20.7 nM, respectively. Besides, the Selectivity, Ki (DPPIV)/Ki (APCE/FAP) in test [3] is 15.2.

FG-peg-G-pyrrolidide (peptide) registered a Ki in test [4] of 703000 nM. The molecule FR-peg-G-[r]fluoropyrrolidide (peptide) came in with a Ki in test [4] of 53800 nM. On the same count and under the same terms, with FR-peg-G-[s]fluoropyrrolidide (peptide) the figure was 55300 nM.

In turn, FR-peg-G-piperidide (peptide) yielded a Ki in test [4] of 264000 nM. For the molecule FR-peg-G-pyrrolidide (peptide), the inhibitory constant (Ki) in test [4] worked out at 67700 nM.

B1: FRQLTS-G pipecolinyl-NQEQV (peptide)
peptide: FRQLTSG[Pip]NQEQV-OH
modifications: N-terminus assumed
SMILES: CC(C)C[C@H](NC(=O)[C@H](CCC(N)=O)NC(=O)[C@H](CCCNC(=N)N)NC(=O)[C@@H](N)Cc1ccccc1)C(=O)N[C@H](C(=O)N[C@@H](CO)C(=O)NCC(=O)N1CCCC[C@H]1C(=O)N[C@@H](CC(N)=O)C(=O)N[C@@H](CCC(N)=O)C(=O)N[C@@H](CCC(=O)O)C(=O)N[C@@H](CCC(N)=O)C(=O)N[C@H](C(=O)O)C(C)C)[C@@H](C)O
For the molecule B1, in test [4], the affinity corresponds to a Ki of 14000 nM.

B2: FR-peg-G-pipecolinyl-NQEQV (peptide)
peptide: FR[AEEA]G[Pip]NQEQV-OH
modifications: N-terminus assumed
SMILES: CC(C)[C@H](NC(=O)[C@H](CCC(N)=O)NC(=O)[C@H](CCC(=O)O)NC(=O)[C@H](CCC(N)=O)NC(=O)[C@H](CC(N)=O)NC(=O)[C@@H]1CCCCN1C(=O)CNC(=O)COCCOCCNC(=O)[C@H](CCCNC(=N)N)NC(=O)[C@@H](N)Cc1ccccc1)C(=O)O
B2 returned a Ki in test [4] of 14800 nM.

B3: FR-peg-G-pipecolinyl-NQGQV (peptide)
peptide: FR[AEEA]G[Pip]NQGQV-OH
modifications: N-terminus assumed
SMILES: CC(C)[C@H](NC(=O)[C@H](CCC(N)=O)NC(=O)CNC(=O)[C@H](CCC(N)=O)NC(=O)[C@H](CC(N)=O)NC(=O)[C@@H]1CCCCN1C(=O)CNC(=O)COCCOCCNC(=O)[C@H](CCCNC(=N)N)NC(=O)[C@@H](N)Cc1ccccc1)C(=O)O
In the case of B3, in test [4], the affinity corresponds to a Ki of 14500 nM.

B4: FG-peg-G-pipecolinyl-NQEQV (peptide)
peptide: FG[AEEA]G[Pip]NQEQV-OH
modifications: N-terminus assumed
SMILES: CC(C)[C@H](NC(=O)[C@H](CCC(N)=O)NC(=O)[C@H](CCC(=O)O)NC(=O)[C@H](CCC(N)=O)NC(=O)[C@H](CC(N)=O)NC(=O)[C@@H]1CCCCN1C(=O)CNC(=O)COCCOCCNC(=O)CNC(=O)[C@@H](N)Cc1ccccc1)C(=O)O
As for B4, in test [4], the Ki turned out to be 57100 nM.
